{"source": "patent US8530619B2", "about": "“Identification of the hepcidin binding site on ferroportin” (University of Utah Research Foundation, priority 2007, dated 2013)", "key": {"serum hepcidin": {"system": "serum hepcidin", "test": "Serum hepcidin levels after LPS injection, I-HBD assay", "type": "in vivo", "settings": "LPS injected mice", "method": "FIGS. 5A-E illustrate the hepcidin concentrations in mice and human sera. In FIG. 5A, different concentrations of serum were incubated with a known amount of ^125I-hepcidin and I-HBD for 18 hours at 37° C. The beads were washed and radioactivity bound to the beads was determined. A standard curve was determined by incubating known amounts of hepcidin with ^125I-hepcidin and HBD-beads. In FIG. 5B, sera was obtained from wild type mice (C57/Bl6) or from mice that were homozygous for a targeted gene deletion in HFE or homozygous or heterozygous for a targeted gene deletion in the HAMP gene. […] The beads were washed and the amount of radioactivity was determined. Serum hepcidin levels were calculated relative to a standard curve. […] Sera was obtained from the mice 10 hours later and the hepcidin concentration was determined as described in FIG. 5A. In FIG. 5D hepcidin levels were measured in different strains of mice. […] Hepcidin levels were determined as in FIG. 5A. The serum iron (SI), […] (TIBC) and transferrin saturation was calculated as described herein. Each sample was analyzed in triplicate and the error bars represent the standard deviation\nHBD peptides were immobilized by covalently attaching them to agarose beads. […] The fluid was removed and the radioactivity bound to beads was determined by gamma counting (Perkin/Elmer). […]"}, "Fpn": {"target": "T1, Fpn (Homo sapiens, UniProt Q9NP59)", "T1 sequence (Q9NP59 1-571)": "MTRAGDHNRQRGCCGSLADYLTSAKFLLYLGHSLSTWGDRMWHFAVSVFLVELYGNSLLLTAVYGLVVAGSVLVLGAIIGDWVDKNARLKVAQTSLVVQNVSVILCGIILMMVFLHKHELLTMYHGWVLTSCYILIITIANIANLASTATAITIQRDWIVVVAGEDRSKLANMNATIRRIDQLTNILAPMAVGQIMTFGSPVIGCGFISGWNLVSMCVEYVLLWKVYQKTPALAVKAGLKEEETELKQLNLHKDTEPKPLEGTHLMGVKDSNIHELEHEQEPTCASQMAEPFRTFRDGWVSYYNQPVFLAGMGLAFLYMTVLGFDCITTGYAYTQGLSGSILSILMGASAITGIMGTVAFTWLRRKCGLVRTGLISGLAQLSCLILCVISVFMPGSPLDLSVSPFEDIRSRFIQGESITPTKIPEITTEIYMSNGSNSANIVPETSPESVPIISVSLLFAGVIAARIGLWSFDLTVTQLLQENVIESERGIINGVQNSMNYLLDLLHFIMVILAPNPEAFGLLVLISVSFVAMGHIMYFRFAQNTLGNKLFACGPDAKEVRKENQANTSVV", "settings": "reference (7); cited from earlier work"}, "[1]": {"target": "T2, I-HBD (hepcidin binding domain of ferroportin) (Homo sapiens, UniProt Q9NP59)", "T2 construct": "made in house; host or cells: chemical synthesis", "T2 sequence (Q9NP59 with tags, fused parts or gaps limits assumed)": "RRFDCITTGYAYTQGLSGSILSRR", "test": "Competition with 125I-hepcidin for binding to I-HBD beads", "method": "(§1) FIGS. 2A-C illustrates that the binding of ^125I-hepcidin to HBD is specific and temperature dependent. In FIG. 2A peptides (HBD, scrambled-HBD or mutant (C326Y HBD) were conjugated to beads and ^125I-hepcidin was added to the bead-immobilized peptides (I-HBD) for 18 hours at 37° C. (black bars) or 4° C. (grey bars). The beads were washed and the amount of ^125I-hepcidin bound to the I-HBD was determined. In FIG. 2B a sub saturating concentration of ^125I-hepcidin (0.6 μg/ml) was incubated with I-HBD for 18 hours at 37° C. in the presence or absence of known concentrations of either hepcidin 25 (Hep 25-open circles) or hepcidin 25 synthesized with a tyrosine substitution at position M21 (Y-Hep 25) and the amount of radioactivity bound to the I-HBD determined. In FIG. 2C sub saturating levels of ^125I-hepcidin were incubated with I-HBD at different temperatures.\nThe binding of ^125I-hepcidin could be reduced by addition of native non-radioactive hepcidin with an apparent K of approximately 200 nM (FIG. 2B). There was no binding of ^125I-hepcidin to I-HBD at 4° C. and ^125I-hepcidin bound to I-HBD at 37° C. was released when subsequently placed at 4° C. (data not shown).\nHBD peptides were immobilized by covalently attaching them to agarose beads. […] The fluid was removed and the radioactivity bound to beads was determined by gamma counting (Perkin/Elmer)."}, "125I-hepcidin": {"target": "T3, 125I-hepcidin (Homo sapiens, UniProt P81172, M80Y)", "T3 construct": "hepcidin 25 synthesized with a tyrosine substitution at position M21 (Y-Hep 25); made in house; host or cells: chemical synthesis", "T3 sequence (P81172 60-84 M80Y)": "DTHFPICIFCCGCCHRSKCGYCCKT", "test": "125I-hepcidin binding to bead-immobilized peptides", "settings": "37° C.; listed as HBD peptide containing the human Fpn mutation C326Y", "method": "as §1, with “In FIG. 2C sub saturating levels of ^125I-hepcidin were incubated with I-HBD at different temperatures.” left out\nFIGS. 3A and 3B illustrate that the dissociation of the hepcidin/HBD complex is accelerated by low temperature. […] (open circle) for the specified times and the amount of radioactivity remaining bound to the I-HBD was determined. The data are expressed as radioactivity at each time point relative to the amount bound at time zero. In FIG. 3B the ^125I-hepcidin/1-HBD complex was allowed to form at 37° C., the complex was then washed and incubated with the indicated concentration of NEM and the amount of bound radioactivity was determined after a four-hour incubation (closed circles). […]"}, "hepcidin [2]": {"target": "T4, hepcidin (Homo sapiens, UniProt P81172, M80Y)", "T4 construct": "generates the mature bioactive 25-amino acid form found in plasma and urine; made in house; host or cells: chemical synthesis", "T4 sequence (P81172 60-84 M80Y)": "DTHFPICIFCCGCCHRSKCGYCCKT", "test": "Inhibition of hepcidin-mediated Fpn-GFP internalization in HEK293TFpn-GFP cells by peptides preincubated with hepcidin", "type": "cell-based", "settings": "preincubation at 37° C.", "method": "(§2) FIGS. 1A-D illustrate inhibition of hepcidin-mediated Fpn internalization by HBD. […] The HBD peptides and hepcidin were mixed at an equal molar ratio for two hours at 37° C. and then added to cells for one or 24 hours. Fpn internalization at one hour was analyzed by epifluorescence (upper panel) and the percentage of cells showing internalized Fpn-GFP at one and 24 hours was quantified (lower panel). The data represent the standard error of the mean from analyzing over 10 fields (20-30 cells) per sample. FIG. 1B illustrates HBD inhibition of Fpn-GFP internalization. Fpn-GFP expressing cells were incubated with hepcidin, hepcidin preincubated with HBD at 37° C. or hepcidin preincubated with HBD at 4° C. Fpn-GFP internalization at one (black bars) and 24 (grey bars) hours was quantified. The percentage of cells with internalized Fpn is shown. FIG. 1C illustrates that ^125I-hepcidin binds to HBD similarly to unlabeled hepcidin. ^125I-hepcidin was preincubated with HBD at 37° C. or 4° C. for one hour and then the mixture added to cells for one hour (black bars) or twenty-four hours (grey bars). The data are expressed as in FIG. 1B. FIG. 1D illustrates the fact that binding of hepcidin to HBD is reversible by low temperature. In the left panel the samples were treated as in FIG. 1C. In the right panel, the sample was incubated at 37° C. and was placed at 4° C. for four hours. The mixture was then incubated with cells at 37° C. and the internalization of Fpn-GFP was determined after one (black bars) or twenty four hours (grey bars).\n(§3) Incubation of HEK293TFpn-GFP cells with hepcidin results in the internalization of cell surface Fpn-GFP (2) and FIG. 1A. […] Previously it was determined that hepcidin binding to Fpn was temperature dependent (2).\n(§4) HEK293TFpn-GFP, a stable cell line in which Fpn-Green fluorescent protein (GFP) expression is regulated by the ecdysone promoter has been described previously (2).\n(§5) Peptides were synthesized at the DNA/Peptide Core Facility, University of Utah, Salt Lake City, Utah. The peptides were synthesized with two arginines added at the amino and carboxyl terminals. […] Microscope analysis was carried out using an Olympus BX51 microscope (Olympus, Tokyo, Japan). Images were acquired using Picture Frame 2.5 software (Olympus America, East Muskogee, Okla.). All experiments were repeated a minimum of 5 times.\n(§6) To characterize the interaction of the HBD with hepcidin, hepcidin was labeled at an iodinateable tyrosine to produce ^125I-hepcidin. Previously, it was shown that ^125I-hepcidin bound to Fpn indistinguishably from hepcidin that lacked the iodinateable tyrosine (2). HBD was then conjugated to agarose beads to produce immobilized HBD (I-HBD), which was then preincubated with ^125I-hepcidin at 37° C. prior to addition to Fpn-GFP expressing cells."}, "hepcidin [3]": {"target": "T5, hepcidin (Homo sapiens, UniProt P81172)", "T5 construct": "generates the mature bioactive 25-amino acid form found in plasma and urine; made in house; host or cells: chemical synthesis", "T5 sequence (P81172 60-84)": "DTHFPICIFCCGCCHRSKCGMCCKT", "test": "Inhibition of hepcidin-mediated Fpn-GFP internalization in HEK293TFpn-GFP cells by peptides preincubated with hepcidin", "type": "cell-based", "settings": "peptide preincubated with hepcidin at equal molar amounts, 37° C.; HEK293TFpn-GFP cells", "method": "as §2, §3, §4, §5, §6"}, "I-HBD": {"target": "T6, I-HBD (Homo sapiens, UniProt Q9NP59)", "T6 construct": "made in house; host or cells: chemical synthesis", "test": "Effect of NEM on 125I-hepcidin binding to I-HBD", "method": "FIGS. 3A and 3B illustrate that the dissociation of the hepcidin/HBD complex is accelerated by low temperature. In FIG. 3A ^125I-hepcidin was added to I-HBD and a complex was allowed to form at 37° C. The I-HBD/^125I-hepcidin complex was washed and then incubated with an excess of non-radioactive hepcidin. The samples were then incubated at 37° C. (closed circle) or 4° C. (open circle) for the specified times and the amount of radioactivity remaining bound to the I-HBD was determined. The data are expressed as radioactivity at each time point relative to the amount bound at time zero. In FIG. 3B the ^125I-hepcidin/1-HBD complex was allowed to form at 37° C., the complex was then washed and incubated with the indicated concentration of NEM and the amount of bound radioactivity was determined after a four-hour incubation (closed circles). I-HBD alone was also incubated with the specified concentrations of NEM for 2 hours. The I-HBD beads were washed and then ^125I-hepcidin was added at 37° C. and the amount of bound radioactivity was determined after a four-hour incubation (open circles)."}}, "note": "“Also recorded” adds a separate entry of the source. No end group written: not given here.", "data": [{"compound": "lipopolysaccharide [LPS]", "values": [{"measurement": "hepcidin levels in sera", "setting": "serum hepcidin", "result": "two-fold increase"}]}, {"compound": "Hep20: hepcidin derivative with the five amino terminal amino acids deleted (ICIFCCGCCHRSKCGMCCKT; not fully specified (N-terminus, C-terminus); ends and bridges not checked)", "values": [{"measurement": "binding to Fpn", "setting": "Fpn", "result": "do not bind to Fpn"}, {"measurement": "binding to HBD / I-HBD", "setting": "[1]", "result": "nor do they bind to HBD; also recorded: does not bind to I-HBD"}]}, {"compound": "HBD Mutant: Fpn peptide containing the C326Y mutation, RR-FDYITTGYAYTQGLSGSILS-RR (SEQ ID NO: 4) (RRFDYITTGYAYTQGLSGSILSRR; HBD Mutant)", "values": [{"measurement": "125I-hepcidin binding to the peptide", "setting": "125I-hepcidin", "result": "did not bind ^125I-hepcidin"}, {"measurement": "Fpn-GFP internalization activity of 125I-hepcidin after preincubation with peptide", "setting": "hepcidin [2]", "result": "did not affect"}, {"measurement": "hepcidin-mediated internalization of Fpn-GFP", "setting": "hepcidin [3]", "result": "did not prevent hepcidin mediated Fpn-GFP internalization"}]}, {"compound": "HBD Scramble: same amino acid composition as HBD in randomized sequence, RR-ILSLFDAYCTGTQITGSGSY-RR (SEQ ID NO: 3) (RRILSLFDAYCTGTQITGSGSYRR; HBD Scramble)", "values": [{"measurement": "Fpn-GFP internalization activity of 125I-hepcidin after preincubation with peptide", "setting": "hepcidin [2]", "result": "did not affect"}, {"measurement": "hepcidin-mediated internalization of Fpn-GFP", "setting": "hepcidin [3]", "result": "did not prevent Fpn-internalization"}]}, {"compound": "CCN1C(=O)C=CC1=O", "note": "[NEM, N-ethylmaleimide]", "values": [{"measurement": "125I-hepcidin binding activity of I-HBD", "setting": "I-HBD; I-HBD treated with NEM before 125I-hepcidin", "result": "loss of ^125I-hepcidin binding activity"}, {"measurement": "125I-hepcidin/I-HBD complex", "setting": "I-HBD; NEM added after complex formed at 37° C.", "result": "the complex was not affected"}]}]}
